Assay results from IntAct's records for PubMed 23353789.

B1: Segregation and condensation protein A (Bacillus subtilis), P35154 (parent)
chain: MEEYQVKIDTFEGPLDLLLHLINRLEIDIYDIPVAKITEQYLLYVHTMRVLELDIASEYLVMAATLLSIKSRMLLPKQEEELFEDELLEEEDPREELIEKLIEYRKYKDAAKDLKEREEERQKSFTKPPSDLSEYAKEVKQSEQKLSVTVYDMIGAFQKVLKRKKINRPMETTITRQDIPIEARMNEIVHSLKSRGTRINFMDLFPYEQKEHLVVTFLAVLELMKNQLVLIEQEHNFSDIYITGSESIHGA
partner: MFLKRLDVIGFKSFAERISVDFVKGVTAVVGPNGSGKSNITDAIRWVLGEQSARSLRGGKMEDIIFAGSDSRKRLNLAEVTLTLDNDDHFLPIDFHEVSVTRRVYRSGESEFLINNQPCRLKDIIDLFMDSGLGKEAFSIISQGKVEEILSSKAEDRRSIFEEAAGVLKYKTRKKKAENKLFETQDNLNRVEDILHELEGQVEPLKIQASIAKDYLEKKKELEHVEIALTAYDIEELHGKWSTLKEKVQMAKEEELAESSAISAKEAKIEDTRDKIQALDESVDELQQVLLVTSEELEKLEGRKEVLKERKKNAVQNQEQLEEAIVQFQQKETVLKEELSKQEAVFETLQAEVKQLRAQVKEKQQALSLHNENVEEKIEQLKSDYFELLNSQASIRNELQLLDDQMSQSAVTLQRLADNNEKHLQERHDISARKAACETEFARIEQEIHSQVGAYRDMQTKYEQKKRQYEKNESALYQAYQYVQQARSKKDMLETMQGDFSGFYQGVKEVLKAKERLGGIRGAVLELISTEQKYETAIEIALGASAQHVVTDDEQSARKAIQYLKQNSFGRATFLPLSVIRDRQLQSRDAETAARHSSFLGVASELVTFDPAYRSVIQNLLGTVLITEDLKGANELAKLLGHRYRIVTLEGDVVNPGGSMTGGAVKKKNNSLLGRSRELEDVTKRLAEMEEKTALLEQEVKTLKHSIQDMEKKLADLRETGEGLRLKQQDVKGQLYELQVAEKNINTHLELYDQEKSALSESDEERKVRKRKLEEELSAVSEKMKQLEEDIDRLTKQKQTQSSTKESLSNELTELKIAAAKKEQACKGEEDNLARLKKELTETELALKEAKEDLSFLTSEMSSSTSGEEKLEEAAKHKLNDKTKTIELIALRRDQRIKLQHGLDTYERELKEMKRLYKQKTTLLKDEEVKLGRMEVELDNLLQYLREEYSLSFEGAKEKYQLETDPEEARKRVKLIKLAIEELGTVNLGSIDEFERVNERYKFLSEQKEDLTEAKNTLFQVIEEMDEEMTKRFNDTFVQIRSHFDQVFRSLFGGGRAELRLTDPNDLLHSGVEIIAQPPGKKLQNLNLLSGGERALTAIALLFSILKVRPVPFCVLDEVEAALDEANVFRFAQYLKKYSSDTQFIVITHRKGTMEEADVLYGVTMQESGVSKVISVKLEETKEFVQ
B2: Chromosome partition protein Smc (Bacillus subtilis), P51834 (parent)
chain: B1 partner
partner: B1 chain

Variants of: B1
Details: with smc_bacsu smc

| effect of a mutation on the interaction | Variant |
| --- | --- |
| disrupting interaction strength | MEEYQVKIDTFEGPLDLLLHLINRLEIDIYDIPVAKITEQYLLYVHTMRVLELDIASEYLVMAATLESIKSRMLLPKQEEELFEDELLEEEDPREELIEKLIEYRKYKDAAKDLKEREEERQKSFTKPPSDLSEYAKEVKQSEQKLSVTVYDMIGAFQKVLKRKKINRPMETTITRQDIPIEARMNEIVHSLKSRGTRINFMDLFPYEQKEHLVVTFLAVLELMKNQLVLIEQEHNFSDIYITGSESIHGA [L67E] |
| disrupting interaction strength | MEEYQVKIDTFEGPLDLLLHLINRLEIDIYDIPVAKITEQYLLYVHTMRVLELDIASEYKVMAATLLSIKSRMLLPKQEEELFEDELLEEEDPREELIEKLIEYRKYKDAAKDLKEREEERQKSFTKPPSDLSEYAKEVKQSEQKLSVTVYDMIGAFQKVLKRKKINRPMETTITRQDIPIEARMNEIVHSLKSRGTRINFMDLFPYEQKEHLVVTFLAVLELMKNQLVLIEQEHNFSDIYITGSESIHGA [L60K] |
| disrupting interaction strength | MEEYQVKIDTFEGPLDLLLHLINRLEIDIYDIPVAKITEQYLLYVHTMRVLELDIASEYLVMAATLLSIESRMLLPKQEEELFEDELLEEEDPREELIEKLIEYRKYKDAAKDLKEREEERQKSFTKPPSDLSEYAKEVKQSEQKLSVTVYDMIGAFQKVLKRKKINRPMETTITRQDIPIEARMNEIVHSLKSRGTRINFMDLFPYEQKEHLVVTFLAVLELMKNQLVLIEQEHNFSDIYITGSESIHGA [K70E] |

Variants of: B2
Details: with scpa_bacsu scpA

| effect of a mutation on the interaction | Variant |
| --- | --- |
| disrupting interaction strength | V1176E |
| disrupting interaction strength | I1174E |

Variants of: B2
Details: with scpa_bacsu scpA
Remark: another data set of the same source

| effect of a mutation on the interaction | Variant |
| --- | --- |
| disrupting interaction strength | V1021E |
| decreasing interaction strength | Y170E |
